The record followed here is patent US20120288481A1 (BRIGHAM AND WOMEN S HOSPITAL, published 2012).

The target in the assay is human EphA2 receptor on human cardiac stem cells (hCSCs) (human, UniProt P29317 24-976). As to the kind of experiment: cell-based or functional assay.
Chain of human EphA2 receptor on human cardiac stem cells (hCSCs) (P29317 24-976 limits assumed): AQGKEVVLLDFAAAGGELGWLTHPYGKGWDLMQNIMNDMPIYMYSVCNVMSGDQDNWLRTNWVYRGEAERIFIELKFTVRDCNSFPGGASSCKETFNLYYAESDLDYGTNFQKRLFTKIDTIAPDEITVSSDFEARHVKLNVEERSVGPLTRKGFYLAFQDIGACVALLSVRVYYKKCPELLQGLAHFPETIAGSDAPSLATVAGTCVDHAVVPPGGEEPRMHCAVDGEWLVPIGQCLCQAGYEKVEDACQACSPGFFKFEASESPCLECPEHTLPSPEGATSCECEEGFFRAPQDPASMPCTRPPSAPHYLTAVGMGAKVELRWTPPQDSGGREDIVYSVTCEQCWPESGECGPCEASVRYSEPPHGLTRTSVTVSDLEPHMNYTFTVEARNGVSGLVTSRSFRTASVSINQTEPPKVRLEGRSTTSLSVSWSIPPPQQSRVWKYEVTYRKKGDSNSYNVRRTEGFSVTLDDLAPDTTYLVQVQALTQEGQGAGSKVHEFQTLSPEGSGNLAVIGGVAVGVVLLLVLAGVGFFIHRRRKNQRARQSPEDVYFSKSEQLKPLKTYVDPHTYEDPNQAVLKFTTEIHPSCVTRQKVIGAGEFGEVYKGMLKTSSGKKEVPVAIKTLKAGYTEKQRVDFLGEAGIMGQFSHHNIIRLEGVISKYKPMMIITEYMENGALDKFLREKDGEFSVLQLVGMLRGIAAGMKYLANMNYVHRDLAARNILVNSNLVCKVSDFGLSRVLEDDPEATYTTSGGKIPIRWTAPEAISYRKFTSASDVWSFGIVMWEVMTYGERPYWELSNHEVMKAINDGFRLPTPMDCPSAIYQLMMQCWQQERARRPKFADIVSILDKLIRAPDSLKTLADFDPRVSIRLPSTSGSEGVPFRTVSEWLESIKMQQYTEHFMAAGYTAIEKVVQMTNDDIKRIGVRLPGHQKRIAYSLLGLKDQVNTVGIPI

B1: human ephrin A1-Fcy chimeric protein (ephrin A1-Fc) (Fc fusion, UniProt P20827 19-182, looked up, not shown: a dimerising Fc or GST)
chain: DRHTVFWNSSNPKFRNEDYTIHVQLNDYVDIICPHYEDHSVADAAMEQYILYLVEHEEYQLCQPQSKDQVRWQCNRPSAKHGPEKLSEKFQRFTPFTLGKEFKEGHSYYYISKPIHQHEDRCLRLKVTVSGKITHSPQAHDNPQEKRLAADDPEVRVLHSIGHS
As to B1, the “speed of locomotion of hCSCs within the myocardium (two-photon microscopy)” value turned out to be 2 fold.
